US20140274782A1, “AFFINITY REAGENTS AND METHODS FOR DETECTION, PURIFICATION, AND PROTEOMIC ANALYSIS OF METHYLATED PROTEINS” (The Board of Trustees of the Leland Stanford Junior …, priority 2013, published 2014)

Columns and labels:
[1] = target: T1, G9a and GLP (Homo sapiens, UniProt Q96KQ7+Q9H9B1); assay: Triple SILAC pull-down after UNC0638 treatment of 293T cells, DMSO/UNC0638 ratio of protein captured by 3×MBT; assay type: cell-based; conditions: for Relative to UNC0638 UNC Heavy: UNC0638 in heavy SILAC media; for Relative to UNC0638 UNC Light: UNC0638 in light SILAC media; for Relative to UNC0638 Average: average of UNC Light and UNC Heavy experiments;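 as to all read-outs here: mass spectrometry (Q-Exactive) SILAC quantitation, DMSO/UNC0638 ratio computed after subtracting 3×MBTD355N mutant pull-down background, only proteins with at least twofold 3×MBT over mutant signal considered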
T1 construct: endogenous in cells; host or cells: HEK 293T
T1 sequence (Q96KQ7 2-1210 limits assumed): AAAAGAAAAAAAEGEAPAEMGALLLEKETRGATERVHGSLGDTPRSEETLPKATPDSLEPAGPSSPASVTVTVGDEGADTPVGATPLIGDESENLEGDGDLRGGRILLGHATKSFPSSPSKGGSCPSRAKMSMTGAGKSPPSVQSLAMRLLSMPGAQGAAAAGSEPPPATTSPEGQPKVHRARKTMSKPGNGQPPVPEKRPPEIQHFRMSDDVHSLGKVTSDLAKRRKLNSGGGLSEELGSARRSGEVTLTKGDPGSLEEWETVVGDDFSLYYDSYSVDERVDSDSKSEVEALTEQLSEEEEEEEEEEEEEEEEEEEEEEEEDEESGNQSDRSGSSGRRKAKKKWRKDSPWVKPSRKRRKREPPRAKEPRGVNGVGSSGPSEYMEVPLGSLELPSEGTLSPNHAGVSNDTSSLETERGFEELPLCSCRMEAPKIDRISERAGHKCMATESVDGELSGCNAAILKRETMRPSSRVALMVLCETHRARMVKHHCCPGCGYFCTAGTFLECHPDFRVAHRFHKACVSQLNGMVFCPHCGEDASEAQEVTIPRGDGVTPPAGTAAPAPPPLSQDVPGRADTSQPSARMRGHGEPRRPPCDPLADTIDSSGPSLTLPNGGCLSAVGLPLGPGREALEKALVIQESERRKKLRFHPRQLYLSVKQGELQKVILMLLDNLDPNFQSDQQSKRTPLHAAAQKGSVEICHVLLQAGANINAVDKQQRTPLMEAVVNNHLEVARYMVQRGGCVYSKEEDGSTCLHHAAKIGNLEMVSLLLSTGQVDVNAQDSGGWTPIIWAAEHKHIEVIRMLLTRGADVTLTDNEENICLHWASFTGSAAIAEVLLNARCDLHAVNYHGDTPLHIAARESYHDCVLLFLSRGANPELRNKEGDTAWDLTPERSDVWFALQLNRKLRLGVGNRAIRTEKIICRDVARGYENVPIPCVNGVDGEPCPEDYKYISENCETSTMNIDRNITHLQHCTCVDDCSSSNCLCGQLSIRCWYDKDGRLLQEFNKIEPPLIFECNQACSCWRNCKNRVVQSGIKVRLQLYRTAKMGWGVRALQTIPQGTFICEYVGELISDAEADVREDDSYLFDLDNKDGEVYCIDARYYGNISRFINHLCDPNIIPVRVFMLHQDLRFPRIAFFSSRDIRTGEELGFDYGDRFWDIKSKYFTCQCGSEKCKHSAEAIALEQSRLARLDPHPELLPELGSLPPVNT
T1 sequence (Q9H9B1 2-1298 limits assumed): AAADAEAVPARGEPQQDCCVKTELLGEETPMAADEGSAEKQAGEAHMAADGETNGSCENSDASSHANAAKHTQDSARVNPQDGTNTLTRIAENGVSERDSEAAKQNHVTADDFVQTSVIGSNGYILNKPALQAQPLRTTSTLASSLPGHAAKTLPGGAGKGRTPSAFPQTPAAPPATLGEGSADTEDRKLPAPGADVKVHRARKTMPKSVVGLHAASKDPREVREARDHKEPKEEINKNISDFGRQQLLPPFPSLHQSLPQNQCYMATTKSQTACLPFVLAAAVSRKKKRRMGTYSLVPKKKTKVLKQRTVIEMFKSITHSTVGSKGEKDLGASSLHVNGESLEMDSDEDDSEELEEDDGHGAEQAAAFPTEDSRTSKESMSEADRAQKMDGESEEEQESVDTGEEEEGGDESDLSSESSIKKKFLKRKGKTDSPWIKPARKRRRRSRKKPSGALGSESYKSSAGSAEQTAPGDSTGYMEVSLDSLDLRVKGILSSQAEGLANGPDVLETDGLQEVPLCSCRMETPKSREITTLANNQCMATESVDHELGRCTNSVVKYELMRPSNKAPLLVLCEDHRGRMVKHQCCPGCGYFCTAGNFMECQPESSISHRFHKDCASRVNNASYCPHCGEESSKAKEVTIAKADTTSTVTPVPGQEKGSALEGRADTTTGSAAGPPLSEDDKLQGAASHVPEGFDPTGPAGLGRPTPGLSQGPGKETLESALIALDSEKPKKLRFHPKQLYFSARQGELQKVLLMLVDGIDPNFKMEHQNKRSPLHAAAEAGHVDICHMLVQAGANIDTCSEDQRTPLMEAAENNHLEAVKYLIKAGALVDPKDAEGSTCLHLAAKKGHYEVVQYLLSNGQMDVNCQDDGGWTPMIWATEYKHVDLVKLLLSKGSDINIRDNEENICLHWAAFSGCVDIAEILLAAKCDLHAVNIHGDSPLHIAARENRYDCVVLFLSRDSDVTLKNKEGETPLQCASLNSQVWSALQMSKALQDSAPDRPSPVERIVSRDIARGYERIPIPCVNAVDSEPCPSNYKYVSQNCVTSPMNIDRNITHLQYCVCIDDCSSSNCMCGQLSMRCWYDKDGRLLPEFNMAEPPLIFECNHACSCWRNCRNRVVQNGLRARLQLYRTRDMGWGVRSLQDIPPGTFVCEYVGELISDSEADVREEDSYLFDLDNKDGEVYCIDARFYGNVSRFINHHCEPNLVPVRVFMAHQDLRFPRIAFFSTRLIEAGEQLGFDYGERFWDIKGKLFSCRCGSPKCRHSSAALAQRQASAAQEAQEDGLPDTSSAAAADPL

[2] = system: 3×MBT domain of L3MBTL1; assay: Triple SILAC pull-down, 3xMBT/3xMBTD355N ratio (cytoplasmic, nuclear and chromatin fractions of 293T cells); assay type: binding, human; conditions: for 3xMBT/D355N UNC Heavy: experiment with UNC0638 in heavy SILAC media; for 3xMBT/D355N UNC Light: experiment with UNC0638 in light SILAC media;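 as to all read-outs here: proteins quantified with MaxQuant, requiring at least two unique peptides and quantification in both label directions, normalized to the mean of proteins from a digested loading control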
[3] = SILAC ratio DMSO/UNC0638 of protein pulled down with 3xMBT
[4] = SILAC ratio, pull-down 3xMBT vs 3xMBTD355N
[5] = SILAC ratio DMSO relative to UNC0638, pull-down with 3xMBT, all values in log base 2
[6] = SILAC ratio 3xMBT vs 3xMBTD355N pull-down, 293T cells, all values in log base 2

Row | Relative to UNC0638 UNC Heavy [1, 3] [log base 2] | Relative to UNC0638 UNC Light [1, 3] [log base 2] | Relative to UNC0638 Average [1] [log base 2] | Relative to UNC0638 UNC Heavy [1, 5] [log base 2] | Relative to UNC0638 UNC Light [1, 5] [log base 2] | Relative to UNC0638 Average ([1]; all values in log base 2) [log base 2] | Protein Ratios DMSO/UNC0638 ([1]; SILAC ratio of protein captured by 3xMBT, 293T cells treated 24 hours with UNC0638 at 2.5 μM or DMSO) | Substance | 3xMBT/D355N UNC Heavy [2, 4] [log base 2] | 3xMBT/D355N UNC Light [2, 4] [log base 2] | 3xMBT/D355N UNC Heavy [2, 6] [log base 2] | 3xMBT/D355N UNC Light [2, 6] [log base 2] | Protein Ratios 3xMBT/D355N ([2]; SILAC ratio, pull-down by 3xMBT vs 3xMBTD355N, 293T cells)
1 | 0.16 | 0.11 | 0.14 | – | – | – | – | SNRPA | 4.73 | 5.10 | – | – | –
2 | 0.25 | 0.23 | 0.24 | – | – | – | – | SRSF3 | 2.63 | 2.55 | – | – | –
3 | – | – | – | 0.24 | −0.15 | 0.05 | – | STRAP | – | – | 1.61 | 1.80 | –
4 | 0.04 | 0.23 | 0.13 | – | – | – | – | SUPT16H | 3.66 | 4.01 | – | – | –
5 | – | – | – | – | – | – | 1.3 | SWI/SNF-related matrix-associated actin-dependent regulator of chromatin subfamily A member 5 | – | – | – | – | 5.8
6 | 0.18 | 0.21 | 0.20 | – | – | – | – | TARDBP | 2.44 | 2.40 | – | – | –
7 | 0.16 | 0.22 | 0.19 | – | – | – | – | TFG | 4.21 | 4.03 | – | – | –
8 | 0.64 | −0.05 | 0.30 | – | – | – | – | THOC2 | 2.50 | 2.01 | – | – | –
9 | 0.42 | −0.18 | 0.12 | – | – | – | – | TOP2A | 2.56 | 2.96 | – | – | –
10 | 0.21 | 0.21 | 0.21 | – | – | – | – | TOP2B | 1.61 | 2.04 | – | – | –
11 | 0.05 | 0.46 | 0.25 | – | – | – | – | TRIM25 | 1.88 | 0.76 | – | – | –
12 | 0.46 | −0.24 | 0.11 | – | – | – | – | TRIP12 | 0.66 | 1.34 | – | – | –
13 | 0.31 | 0.14 | 0.22 | – | – | – | – | TUBB | 1.16 | 1.42 | – | – | –
14 | 0.42 | 0.03 | 0.23 | – | – | – | – | TUBB4B | 1.05 | 1.75 | – | – | –
15 | – | – | – | 0.54 | −0.45 | 0.04 | – | UHRF1 | – | – | 3.68 | 2.24 | –
16 | 0.57 | −0.05 | 0.26 | – | – | – | – | USP10 | 2.00 | 2.13 | – | – | –
17 | 0.21 | 0.03 | 0.12 | – | – | – | – | VRK1 | 2.10 | 2.56 | – | – | –
18 | 0.14 | 0.17 | 0.15 | – | – | – | – | XRCC5 | 2.15 | 2.80 | – | – | –
19 | 0.58 | −0.12 | 0.23 | – | – | – | – | YWHAE | 1.86 | 2.52 | – | – | –
20 | 0.09 | 0.13 | 0.11 | – | – | – | – | ZFR | 2.89 | 3.14 | – | – | –
21 | 0.34 | 0.09 | 0.21 | – | – | – | – | ZNF207 | 2.48 | 3.12 | – | – | –
